The values below are quoted from earlier work in publication PMC11497281.

For the series, the target named is Asp27 (UniProt position 27, WNLPADLAWFK).

As for “Dihydrofolate reductase (DHFR) (Escherichia coli)”, the pKa result is on record as “approximately 6.5”.
